Results taken from US20150158933A1.

Target: natural VIF protein on the surface of T1 human cells infected with HIV-1 strain IIIB (HIV-1 strain IIIB) (UniProt P69723)
Assay: flow cytometry on HIV-1 IIIB infected T1 cells, 1:100

UniProt P69723, sequence (P69723 whole entry): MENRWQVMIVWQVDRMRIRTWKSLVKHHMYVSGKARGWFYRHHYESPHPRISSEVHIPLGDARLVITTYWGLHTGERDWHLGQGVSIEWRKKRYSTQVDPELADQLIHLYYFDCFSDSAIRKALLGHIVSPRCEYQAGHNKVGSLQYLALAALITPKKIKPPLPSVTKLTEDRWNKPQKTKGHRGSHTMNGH

## Isotype control (antibody)
  MFI: 971
